23 sequences from the Immune Epitope Database (IEDB) can be followed below.

Targets include HLA-A*33:01; HLA-A*31:01; HLA-A*03:01; HLA-A*68:01; HLA-A*11:01.
Holding throughout (assay): IEDB peptide-MHC binding, purified MHC/competitive/radioactivity; filed as Kd, often an IC50 or EC50 that approximates it; ≥ and ≤ were set here for values at or beyond the usual limits of such assays
Where [1] appears, read: source organism: Vaccinia virus WR.
Setting [2] is: source organism: SARS coronavirus Tor2.
[3] abbreviates: source organism: Mammarenavirus brazilense.
Where [4] appears, read: source organism: Mammarenavirus juninense.
Where [5] appears, read: source organism: Mammarenavirus whitewaterense.

Broadly, the Kd is the constant that tells how readily two partners part at equilibrium.

As for ELALTDVEK, the Kd with HLA-A*33:01 (setting [1]) was found to be 5810 nM; in the assay with HLA-A*31:01 (setting [1]), 9810 nM; with HLA-A*03:01 (setting [1]), 1560 nM; with HLA-A*68:01 (setting [1]) it was 1.16 nM; with HLA-A*11:01 (setting [1]) it was 513 nM.

On to ELVTRKCPQK, for which the Kd with HLA-A*33:01 (setting [1]) is at least 32000 nM; with HLA-A*31:01 (setting [1]), at least 70000 nM; with HLA-A*03:01 (setting [1]) it was 7420 nM; with HLA-A*68:01 (setting [1]), 1400 nM; with HLA-A*11:01 (setting [1]) it was 513 nM.

Consider EMYPRHRYSK, for which the Kd was determined as 326 nM with HLA-A*33:01 (setting [1]); 1150 nM with HLA-A*31:01 (setting [1]); 126 nM with HLA-A*03:01 (setting [1]); 27.8 nM with HLA-A*68:01 (setting [1]); 1110 nM with HLA-A*11:01 (setting [1]).

As for ETFKIDAVR, the Kd in the assay with HLA-A*33:01 (setting [1]) was 20.7 nM; with HLA-A*31:01 (setting [1]), 107 nM; with HLA-A*03:01 (setting [1]), at least 28700 nM; with HLA-A*68:01 (setting [1]), 1.61 nM; with HLA-A*11:01 (setting [1]) it was 2730 nM.

With EVFGSTGDY, the Kd in the assay with HLA-A*33:01 (setting [1]) is at least 77700 nM; with HLA-A*31:01 (setting [1]), at least 77900 nM; with HLA-A*03:01 (setting [1]), 3140 nM; in the assay with HLA-A*68:01 (setting [1]), 14.2 nM; with HLA-A*11:01 (setting [1]), 13.1 nM.

As for FLKSGAVVK, the Kd with HLA-A*33:01 (setting [1]) is 19500 nM; in the assay with HLA-A*31:01 (setting [1]), 4770 nM; with HLA-A*03:01 (setting [1]) it was 13.5 nM; with HLA-A*68:01 (setting [1]) it was 43.8 nM; with HLA-A*11:01 (setting [1]), 347 nM.

Consider FMEMFFDYNK, for which the Kd with HLA-A*33:01 (setting [1]) turned out to be 2240 nM; with HLA-A*31:01 (setting [1]) it was 720 nM; in the assay with HLA-A*03:01 (setting [1]), 552 nM; with HLA-A*68:01 (setting [1]), 231 nM; in the assay with HLA-A*11:01 (setting [1]) it was 88 nM.

As for FSNTIQSYK, the Kd with HLA-A*33:01 (setting [1]) came to 2000 nM; with HLA-A*31:01 (setting [1]) it was 77.7 nM; with HLA-A*03:01 (setting [1]), 25.5 nM; with HLA-A*68:01 (setting [1]), 5.84 nM; with HLA-A*11:01 (setting [1]), 11 nM.

FSTSAADIK: the Kd with HLA-A*33:01 (setting [1]) was at least 28900 nM; with HLA-A*31:01 (setting [1]), at least 35800 nM; with HLA-A*03:01 (setting [1]) it was 2200 nM; with HLA-A*68:01 (setting [1]), 2.57 nM; with HLA-A*11:01 (setting [1]), 222 nM.

With FVDINRNNK, the Kd in the assay with HLA-A*33:01 (setting [1]) is at least 46800 nM; with HLA-A*31:01 (setting [1]), 2300 nM; in the assay with HLA-A*03:01 (setting [1]) it was 281 nM; with HLA-A*68:01 (setting [1]), 25.1 nM; in the assay with HLA-A*11:01 (setting [1]) it was 50.8 nM.

As to GADPNACDK, the Kd with HLA-A*33:01 (setting [1]) is 8360 nM; with HLA-A*31:01 (setting [1]) it was 3840 nM; in the assay with HLA-A*03:01 (setting [1]) it was at least 37700 nM; with HLA-A*68:01 (setting [1]), 90.6 nM; with HLA-A*11:01 (setting [1]), 6240 nM.

For the sequence GLLATNNVFR, the Kd with HLA-A*33:01 (setting [2]) was 5920 nM; with HLA-A*31:01 (setting [2]) it was 487 nM; with HLA-A*03:01 (setting [2]) it was 428 nM; with HLA-A*68:01 (setting [2]) it was 794 nM; with HLA-A*11:01 (setting [2]), 816 nM.

As to GSFCTQLNR, the Kd with HLA-A*33:01 (setting [2]) is at least 33100 nM; in the assay with HLA-A*31:01 (setting [2]) it was 51.1 nM; with HLA-A*03:01 (setting [2]) it was 1040 nM; with HLA-A*68:01 (setting [2]), 229 nM; with HLA-A*11:01 (setting [2]), 76.1 nM.

In the case of IFVDTMSIY, the dissociation constant Kd is at least 29100 nM with HLA-A*33:01 (setting [1]); 6760 nM in the assay with HLA-A*31:01 (setting [1]); 18300 nM with HLA-A*03:01 (setting [1]); 882 nM with HLA-A*68:01 (setting [1]); 921 nM with HLA-A*11:01 (setting [1]).

Regarding IIKSDHEFVK, the Kd with HLA-A*33:01 (setting [1]) was at least 70000 nM; with HLA-A*31:01 (setting [1]), 15700 nM; with HLA-A*03:01 (setting [1]) it was 4270 nM; with HLA-A*68:01 (setting [1]), 1820 nM; with HLA-A*11:01 (setting [1]), 443 nM.

On to ISFKSINKVY, for which the Kd was at least 63300 nM in the assay with HLA-A*33:01 (setting [1]); 9890 nM with HLA-A*31:01 (setting [1]); 2530 nM with HLA-A*03:01 (setting [1]); 6590 nM with HLA-A*68:01 (setting [1]); 12200 nM with HLA-A*11:01 (setting [1]).

ISKIYTLIYR: the dissociation constant (Kd) in the assay with HLA-A*33:01 (setting [1]) was 0.458 nM; in the assay with HLA-A*31:01 (setting [1]), 0.337 nM; with HLA-A*03:01 (setting [1]), 691 nM; in the assay with HLA-A*68:01 (setting [1]) it was 5.02 nM; with HLA-A*11:01 (setting [1]), 226 nM.

Regarding ITFLRPVLK, the equilibrium dissociation constant (Kd) turned out to be 84.5 nM with HLA-A*33:01 (setting [1]); 7.61 nM in the assay with HLA-A*31:01 (setting [1]); 4.53 nM with HLA-A*03:01 (setting [1]); 1.14 nM with HLA-A*68:01 (setting [1]); 6.45 nM in the assay with HLA-A*11:01 (setting [1]).

As to ITLKIIETY, the Kd was at least 77700 nM in the assay with HLA-A*33:01 (setting [1]); 751 nM with HLA-A*31:01 (setting [1]); at least 78000 nM with HLA-A*03:01 (setting [1]); at least 77700 nM with HLA-A*68:01 (setting [1]); at least 77900 nM in the assay with HLA-A*11:01 (setting [1]).

With IVTSLAIKNY, the Kd was found to be 5680 nM with HLA-A*33:01 (setting [1]); 8820 nM in the assay with HLA-A*31:01 (setting [1]); 1110 nM with HLA-A*03:01 (setting [1]); 1410 nM with HLA-A*68:01 (setting [1]); 51.7 nM with HLA-A*11:01 (setting [1]).

KCFGNTALAK: the Kd is at least 70000 nM with HLA-A*33:01 (setting [3]); 972 nM with HLA-A*31:01 (setting [3]); 830 nM with HLA-A*03:01 (setting [3]); at least 22500 nM with HLA-A*68:01 (setting [3]); 8480 nM with HLA-A*11:01 (setting [3]).

On to KCFGNTAVAK, for which the equilibrium dissociation constant (Kd) in the assay with HLA-A*33:01 (setting [4]) was found to be 1470 nM; with HLA-A*31:01 (setting [4]), 181 nM; with HLA-A*03:01 (setting [4]) it was 579 nM; with HLA-A*68:01 (setting [4]), 18800 nM; in the assay with HLA-A*11:01 (setting [4]), 6460 nM.

Regarding KIGHHVELQH, the Kd with HLA-A*33:01 (setting [5]) was at least 49800 nM; with HLA-A*31:01 (setting [5]), 25.2 nM; with HLA-A*03:01 (setting [5]) it was at least 47100 nM; with HLA-A*68:01 (setting [5]) it was at least 70100 nM; with HLA-A*11:01 (setting [5]), at least 69700 nM.
